Reference: article PMC4861126

Target: Rap1 preloaded with mGppNHp (GDI assay) (Dictyostelium) (UniProt P18613)
Test: GDI (guanine nucleotide dissociation inhibition) assay, fluorescence; mGppNHp labelled G-protein with indicated amounts of RA-TalB, 200 fold excess of GppNHp, 25 °C; 50 mM Tris-HCl pH 7.5, 5 mM MgCl2, 50 mM NaCl, 5 mM DTE; Kd from dependence of kobs on RA-TalB concentration

Chain of UniProt P18613 (P18613 whole entry): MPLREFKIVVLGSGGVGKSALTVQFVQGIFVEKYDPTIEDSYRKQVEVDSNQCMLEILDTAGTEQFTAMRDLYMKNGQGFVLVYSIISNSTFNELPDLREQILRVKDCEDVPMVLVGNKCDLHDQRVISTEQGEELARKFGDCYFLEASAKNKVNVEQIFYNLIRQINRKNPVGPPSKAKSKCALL

B1: Dictyostelium RA-TalB domain (residues 1-122) (domain or fragment)
chain: MSLTLKIQIVRDKQVKAMKFSPTQTVAEVCAQVREKINETSGDDHGLFQPGIDAKRPSRWLKMDKTLQFYDLKINDELDYKKKHRPLKVRLMDETVKTMLVDDSLTAGEILEIIGKRIGIKN
With B1 the Kd was 19.9 µM.
